# Experimental data reported in the nanobody polyreactivity screen of Harvey et al. (2022).
# Test: yeast display, Sf9 membrane polyspecificity reagent, FACS + sequencing; frameworks hold sequencing errors
# Method in brief: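 After 36–48 hours of galactose induction, yeast (Saccharomyces cerevisiae BJ5465) displaying a synthetic nanobody library were stained at 4 °C for 1 hour with 10% biotinylated, detergent-solubilized Sf9 membrane reagent. Streptavidin microbeads enriched the stained cells before FACS sorting into low and high (top ~1%) gates on anti-HA and streptavidin fluorescence. Each clone's polyreactivity label reflects its gate of origin.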
row,Sequence,polyreactivity (PSR sort gate)
1,QVQLVESGGGLVQAGGSLRLSCAASGSTFVENAMGWYRQAPGKQRELVAAISSSGDSTFYADSEKGRFTISRDNAKNTVYLQMNSLIPEDTAVYYCAADRRINYDGLDMDYWGQGTQVTVSS,low polyreactivity
2,QVQLVESGGGLVQAGGSLRLSCAASGLTFPYYAMGWYRKAPGKERELVAGISDSGGSTYYADSVKGRFTISRDNAKNTVYLQMNSLKPEDTAVYYCAAQGVDSYYENDYWGQGTQVTVSS,high polyreactivity
3,QVQLVESGGGLVQAGGSLRLSCAASGITFDYYAMGWYRQAPGKERELVAAISWGGGSTYYADSVKGRFTISRDNAKNTVYLQMNSLKPEDTAVYYCAADIVSSPSSYVPPGDYWGQGTQVTVSS,low polyreactivity
4,QVQLVESGGGLVQAGGSLRLSCAASGSTFYVYAMGWYRQAPGKERELGAAIDSGDSTNYADSVKGRVTISRDNAKNTVYLQMNSLKPEDTAVYYCAVGYWDSRYRYDWPNSDYWGQGTQVTVSS,low polyreactivity
5,QVQLVESGGGLVQAGGSLRLSCAASGSTFSDYAMGWYRQAPGKERELVAGITETGTTTYYADSVKGRFTISRDNAKNTVYLQMNSLKPEDTAVYYCAAYVVTYYYGTGYYSYDYWGQGTQVTVSS,low polyreactivity
6,QVQLVESGGGLVQAGGSLRLSCAASGRTFGYNAMGWYRQAPGKEREFVAAISGSGGRTYYADSVKGRFTISRDNAKNTVYLQMNSQKPEDTAVYYCAAGFGDGPGNGYYTRYSWDDDYWGQGTQVTVSS,low polyreactivity
7,QVQLVESGGGLVQAGGSLRLSCAASGRTFSRNTMGWYRQAPGKERELVAAIRSGGRTDYADSVKGRFTISRDNAKNTVYLQMNSLKPEDTAVYYCATVAGVSRWRGGYWGQGTQVTVSS,low polyreactivity
8,QVQLVESGGGLVQAGGSLRLSCAASGSIFYSNAMGWYRQAPGKERELVAAITWSGGSTYYADSVKGRFTFSRDNAKNTVYLQKNSLKPEDTSVYYCNARRNVRQTFGYEDWGQGTQVTVSS,high polyreactivity
9,QVHLVESGGGLVQAGGSLRLSCAASGRTFRDYTMGWYRQAPGKEREFVAAISSTGSTNYADSVKGRFTISRDNAKNTVYLQMNSLKPEDTAVYYCAADGRRWLGWYGYYYWGQGTQVTVSS,low polyreactivity
10,QVQLQESGGGMVQAGGSLRLSCAASGYISWADYMGWYRQAPGKERELVAGIGYGSTTYYADSVKGRFTISRDNAKNTAYLQMNSLKPEDTAVYYCSVGWYRDTAYKYWGQGTQVTVSS,low polyreactivity
11,QVQLVESGGGLVQAGGSLRLSCAASGFTIQPYTMGWYRQATGKERELVAAISKSGGSTYYADSVKGRFTISRDNAKNTVYLQMHSLKPEDTAVYYCAAVGWWGTSDYWGQGTQVTVSS,high polyreactivity
12,QVQLVESGGGLVQAGGSLRLSCAASGITFYTYAMGWYRQAPGKERELVAAITWRGGRTSYADSVKGRFTISRDNAKNTVYLQMNSLKPEDTAVYYCAKEAHPPWTSQDVFRSYDYWGQGTQVTVSS,low polyreactivity
13,QVQLVESGGGLVQAGGSLRLSFAASGSTFTYNDMGWYRQAPGKERELVARITFSSGRTYYADSVKGRFTISRDNAKNTVYLQMNSLKPEDTAVYYCARQWYWRPGYYIGQGYEYWGQGTQVTVSS,low polyreactivity
14,QVQLVESGGGLVQAGGSLRLSCAASGFTFYHNAMGWYRQAPGKERELVATITARGGRTYYADSVKGRFTISRDNAKNTVYLQMNSLKPVDTAVYYCNVKASRGYTYEYDYWGQGTQVTVSS,high polyreactivity
15,QVQLVESAGGLVQAGGSLRLSCAASGRIFSAYAMRWYRQARGKERQLVAAITWSGANTDYADSVKGRFTISRDNAKNTVYLQMTSLKPEDTAVYYCNASFGRDSAYDYWGQGTQVTVSS,low polyreactivity
16,QVQLVESGGGLVQAGGSLRLSCAASGRTFILNAMGWYRQAPGKERELVAAISWSGGSTYYADSVKGRFTISRDNAKNTVYLQMNCLKPEDTAVYYCAKRYVDPLGSGTHGSWGQGTQVTVSS,low polyreactivity
17,QVQLVESGGGLVQAGGSLRLSCAASGSTFYTNAMGWYRQAPGKERELVAAISGSGGSTYYADSVKGRFTISRDNAMNTVYLQMNSLKPEDTAVYYCADRSRYYDTRFDYWGQGTQVTVSS,low polyreactivity
18,QVQLEESGGGLVQAGGSLRLSCAASGSIFRPNAMGWYRQAPGKERELVASINSGSGSTYYADSVKGRFTISRDNAKNTVYLQMNSLKPEDTAVYYCNAAGAYPYYSEDYYWGQGTQVTVSS,low polyreactivity
19,QVQLVESGGGLVQAGGSLRLSCASSGRTFAYNALGWYREAPGKERELVAAISASGGSTYYADSVKGRFTISRDNAKNTVYLQMNSLKPEDTAVYYCAAYVRSAYYAIHVDYWGQGTQVTVSA,low polyreactivity
20,QVQHVESGGGLVQAGGSLRLSCAASGRTFWINAMGWYRQARGKERELVAAITRGGRTYADSVKGRFTISRDNAKNSVYLQMNSLKPEDTAVYFCAADSYRLSGHHGYDFWGQGTQLTVSS,high polyreactivity
21,QVQLVESGGGLVQAGGSLRLSCAASGRIFSYYAMGWYRPAPGTERELVAAITRAGGTNYADSVKGRFTISRDNAKNTVYLQMNSVKPEDTAVYYCAADRSRYRYNAPRYAYDYWGQGTQVTVSS,high polyreactivity
22,QVQLVESGGGLVQAGGSLRLSCAASGGTFSKYAMGWYRQAPGKEREFVAAITVSGGGTYYADSVKGRFTISRDNAKNTVYLQMNSLKPEDTAVYYCAADLGWTASDYWGQGTQVTVSS,low polyreactivity

row,Sequence,polyreactivity (PSR sort gate)
1,QVQLVESGGGLVQAGGSLRLSCAASGNTFWFYGMGWYRQAPGKERELVAAITSGGSTDYADSVKWRFTISRDNAKNTVYLQMNSLKPEDTAVYYCAAEPVAYYGSSYGYWGQGTQVTVSS,low polyreactivity
2,QVQLVESGGGLVQAGGSLRLSCAASGRTFGYYTMGWYRQAPGKERELVAAITSSGGSTYYADSVKGRFTISRDNAKNTVYLQMNSLKPEDTAVDYCAARAAYYFLYSAMYYWGQGTQVTVSS,high polyreactivity
3,QVQLVESGGCLVQAGGSLRLSCAASGLTFNKNAMGWYRQAPGKEREFVAAITRRGGSTYYADSVKGRFTISRDNAKNTVYLQMNSLKPEDTAVYYCAVYPASVNPYHYDYWGQGTQVTVSS,high polyreactivity
4,QVQLVESGGGLVQAGGSLRLSCAASGITFYDNVMGWYRQAPGKERELVAAITSGGSTNYADSVKGRFTISRDNAKNTVYLQMNSLKPEDTAVYYCAAEGISVTAAQSEWYDYWGQGTQVTVSS,low polyreactivity
5,QVQLVESGGGLVQAGGSLRLSCAASGSTFVPNAMGWYRQAPGKERELVAAISYSGGTTYYADSVKGRFTISRDNAKNTVYLQMNSLKPEDTEVYYCAARSKGAAAILDDYWGQGTQVTVSS,low polyreactivity
6,QVQLVESGGGLVQAGGSLRLSCAASGSIFGTYAMGWYRQAPGKERELVATISYGDGSTYYADSVKGRFTISRDNAKNTVYLQMNSLKPEDTAVYYCNTGVYSSGGPLDYWGQGTQVTVSS,low polyreactivity
7,QVQLVESGGGLVQAGGSLRLSCAAYGITFDANAMGWYRQAPGKERELVARISSGGSTNYADSVKGRFTISRDNAKNTVYLQMNSLKPEDTAVYYCAAERIARPTFDYWGQGTQVTVSS,low polyreactivity
8,QDQLVESGGGLVQAGGSLRLSCAASGRTFPGYAMGWYRQAPGKERELVATSTVSDGSTYYADSVKGRFTISRDNAMNTVYLHMNSLIAEDTAVYYCAKDGGRKRSYSDFDYWRQGTQVTVSS,low polyreactivity
9,QVQLVESGGGLVQAGGSLRLSCAASGLIFPIYTMGWYRQAPGKERELVAAISSRGGSTYYADSVKGRFTISRDNAKNTVYLQMNSLKPEDTAVYYCAAQFRFSGMGYWGQGTQVTVSS,high polyreactivity
10,QVQLVESGGGLVQAGGSLRLSCAASGFIFRYYAMGWYRQEPGKERELVAAISGSGGSKYYADSVKGRFTISRDNAKNNVYLQMNSLKQEDTAVYYFAKSYGSHRKIRTSFGYWGQGTQVTVSS,high polyreactivity
11,QVQLVESGGGLVQAGGSLRLSCAATGFIFERNAMGWYRQAPGKERELVAVISYSGGRTYYADSVKGRFTISRDNANNTVYLQMNSLKPEDTAVYYCAATIVKYGYHYDYWGQGTQVTVSS,high polyreactivity
12,QVQLVESGGGLVQAGGSIRLRCAASGGIFSVYAMGWYIQAPGKERELVASISLSGGSTSYADSVKGRFTISRDNAKNTVYLQMNSLKPEDTAVYYCNTDFGQAHTLSWYEDMDYWGQGTQVTVSS,low polyreactivity
13,QVQLVESGRGFVQAGGRLRLSCAASGRTFGRYTMGWYRQAPGKDRELVASISNTARTNYADSVKGRFTISRDNAKNTVYLQMNSLKPEDTAVYYCAATYIVRYGYWGQGTQVTVSS,low polyreactivity
14,QVQLVESGGGLVQAGGSLRLSCAASGITFRSYAMGWYRQAPGKERELVAAISSTGRTYYADSVKGRFTISRDNAKNTVYLQMNSLKPEDTAVYYCATGGQGAFWGQGTQVTVSS,high polyreactivity
15,QVQLVESCGGLVQAGGSLRLSCAASGFTFYLYAMGWYRQAPGQERELVAAISSRGGTTYYADSVKGRFTISRDNAKNTVYLQMNSLKPEDTAVYYCNVARFYHIYDYWGQGTQVTVSS,high polyreactivity
16,QVQLVETGGGLVQARGSLRLSCAASGRIFRRYAMGWYRQAPGKERELVAAISSGGSTDYADSVKGRFTISRDNAKNTVYLQMNSLKPEDTAVYYCARRGPYYNVGLFDSWGQGTQVTVSS,low polyreactivity
17,QVQLVESGGGLVQAGGSRRLSCAASGSIFVSNAMGWDRQAPGKERELVAAISGGCSTYYADSVKGRFTISRDNAKNTVYLQMNSLKPEDTAVYYCNALFDGYAQDLDYDYWGQGTQVTVSS,low polyreactivity
18,QVHLVESGGGLVQAGGSLRLSCAASGITFRSYAMGWYRQAPGKERELVAAISTSGGRTYYADSVKGRFTISRDNAKNTVYLQMNSLKPEDTAVYYCNKVGGVYGYYAYGLGYWGQGTQVTVSS,high polyreactivity
19,HVQLVESGGGLVQAGGSLRLSCAASGITLVRYAMGWFRPAPGKERELVAAISSSGGSTYYADSVKGRFTISRDNAKNTVYLQMNSLQPEDTAVYYCNAYVHSRRVEFNYWGQGTQVTVSS,high polyreactivity
20,QVQLVESGGGLVQAGGSLRLSCAASGSTFHLYAMGWYRQAPGKETEIVAAIRGRGGNTYADSVKGRFTISRDNAKHTVYFQMNSLKPEDTAVSYCATSISEYQDFTRYDYWGQGTQVTVSS,low polyreactivity
21,QVQLVESGGGLVQAGGSLRLSCASSGLIIDYYAMGWYRQAPGKERELVAAITSSSGITYYADSVKGRFTISRDNAKNTVYLQMNSLKPEDNAVYYCAAYTTYKLYEYAYWGQGTQVTVSS,low polyreactivity
